Measured values: patent US20240400717A1 (NATIONAL CHENG KUNG UNIVERSITY, published 2024)

Columns and labels:
recombinant human CHI3L1 = target: T1, recombinant human CHI3L1 (human, UniProt P36222 22-383); assay: phage ELISA (3rd round single clone screening): coated protein, rescued phage supernatant, anti-M13-HRP, OD450
T1 construct: also called rCHI3L1; human rCHI3L1

mouse rCHI3L1 = target: T2, mouse rCHI3L1 (mouse, UniProt Q61362 30-389, limits assumed); assay: as above
T2 construct: also called mouse CHI3L1; murine CHI3L1
T2 sequence (Q61362 30-389 limits assumed): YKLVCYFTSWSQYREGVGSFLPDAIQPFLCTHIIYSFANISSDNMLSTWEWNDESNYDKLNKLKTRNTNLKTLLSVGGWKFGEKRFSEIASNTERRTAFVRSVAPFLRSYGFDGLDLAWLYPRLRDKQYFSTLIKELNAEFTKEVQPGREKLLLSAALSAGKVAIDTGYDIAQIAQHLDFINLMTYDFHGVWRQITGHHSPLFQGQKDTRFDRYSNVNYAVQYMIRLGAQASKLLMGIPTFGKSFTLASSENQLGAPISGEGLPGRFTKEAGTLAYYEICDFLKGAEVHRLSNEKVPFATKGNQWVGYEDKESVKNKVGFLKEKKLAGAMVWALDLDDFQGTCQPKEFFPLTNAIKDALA

T1 sequence (P36222 22-383 limits assumed): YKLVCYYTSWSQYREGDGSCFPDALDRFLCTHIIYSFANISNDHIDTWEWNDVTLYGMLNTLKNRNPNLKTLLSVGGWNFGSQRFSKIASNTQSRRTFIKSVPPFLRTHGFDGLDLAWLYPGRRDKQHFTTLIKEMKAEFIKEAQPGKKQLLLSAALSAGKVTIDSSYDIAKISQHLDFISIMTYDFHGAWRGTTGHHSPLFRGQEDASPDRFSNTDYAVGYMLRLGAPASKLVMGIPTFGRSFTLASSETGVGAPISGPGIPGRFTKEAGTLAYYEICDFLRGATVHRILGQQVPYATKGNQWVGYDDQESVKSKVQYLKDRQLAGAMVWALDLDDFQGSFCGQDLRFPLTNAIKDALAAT

B1: anti-CHI3L1 clone 293R3-5 (antibody, human IgG1, V domains shown)
VH: EVQLVQSGAGVKKPGATVKISCKVSGYTFTDYYMHWVQQAPGKGLEWMGLVDPEDGETIYAEKFQGRVTITADTSTDTAYMELSSLRSEDTAVYYCATASPREEMPYYFDYWGQGTLVTVSS
VL: SYELTQPPSVSVSPGQTASITCSGDILADQYASWYQQKPGQSPVLVIYHDTKRPSGVPERFSGSTSGNTATLTISGTQAMDEAAYYCQAWDINTAWVFGGGTQLTVLG
notes: also called #hu 293R3-5
binding result (recombinant human CHI3L1): binds
binding result (mouse rCHI3L1): no binding
